Reference: paper PMC4138078 (2014)
Ends that are not written are not given here.

B1: iCAL36 P-3 Ac-K (peptide)
chain: ANSRWPK(Ac)SII
B2: iCAL36 P-1 Tfa-K (peptide)
chain: ANSRWPTSKI
B3: iCAL36 P-1 Ac-K (peptide)
chain: ANSRWPTSK(Ac)I
B4: iCAL36 P-1 FB-K (peptide)
chain: ANSRWPTSKI
B5: iCAL36 P-5 Ac-K (peptide)
chain: ANSRK(Ac)PTSII
B6: iCAL36 P-1 BB-K (peptide)
chain: ANSRWPTSKI
B7: iCAL36 P-4 Ac-K (peptide)
chain: ANSRWK(Ac)TSII

These binders were tested against T1, CAL (CFTR-associated ligand) PDZ (Homo sapiens, UniProt Q9HD26) (assay: SPR).
Binder B1 has a Kd of 122 µM.
In the case of B2, the Kd is reported as 22.3 µM.
B3 showed a Kd of 39.5 µM.
For B4, the Kd was 27.9 µM.
Binder B5 has a Kd of 298 µM.
Work on B6 yielded a Kd of 20 µM.
Work on B7 yielded a Kd of 64.6 µM.

These binders were tested against T1, CAL (CFTR-associated ligand) PDZ (assay: ITC).
With B1 the Kd was 91.9 µM.
In the case of B2, the Kd is reported as 34.5 µM.
Binder B3 has a Kd of 26.4 µM.
B4 gave a Kd of 12.8 µM.
With B6 the Kd was 20.7 µM.
Work on B7 yielded a Kd of 49.4 µM.
